These results are taken from a protein production outcome set (Wang et al. 2014).

The series in a line: label from the status in PepcDB records.
On to “MAKAISAPITFAIILVIGILLLIPFLTYVTYLSQSNQISQAQFNNYIYLKNLEQQRAVSGRPGVYYNGSSLFILYSNGTFVPNASIVVVGILYLNNLGVWQNITSLKYPIILNRTGSVNLPSNVAGKPIILVTSLGNIFFLQPGSSIGPYSNSIGKGGVTIISQIYTSSQIYSTSINITTNINGKFSNYTTPITFPNQTGTFQVKAREYIYYINSKTGKVITGVFSNWQILGSATVNSTTTQGITVTLQGKPVILIANYSQLVQSVNLSIKTNANFSIVVNINGVNYTVNNHALSATVPAGYVNFTVYTLQGNDTSSMSSGIIKHYKFNTINYTGNTYVTNSQLLFLPPNSLPYVQINYVNDYNYYKVFLYDYYDSPPPPGGGLVVILNGTEYNYNNTYGYWIIGGNYSFVPTGIFNGSMSYEAKEVTIAGNNGILNYYFPDIPSYIIINQPMTITVYYDYVIKWVPI”, for which the protein production entry is recorded as “failed”.
Regarding “MSSNIAVVGDRDTVTGFRLGGVREGYVVETPDEAEETIRNLIRDGFSIIIVTEKIGDELREFIEETTSSSALPMIIEIPDKTGPSERETDPLRDLIKRVIGVEMVK”, the protein production entry was “failed”.
Consider “MVTDKSKKAKTEEENVEQIDAELVLSIEKLQEIQDDLEKINEKASDEVLEVEQKYNVIRKPVYDKRNEIIKTIPDFWLTAFLSHPALGELLTEEDQKIFKYLSSLDVEDAKDVKSGYSITFSFNPNPFFEDGKLTKTFTFLEEGTTKITATPIKWKEGKGLANGVNHEKNGNKRALPEESFFTWFSDAQHKEDVEDEMQDEVADIIKEDLWPNPLTYFNNDADEEDFDGDDDGDEEEKEGDSDEDDDEEDEVGEE”, for which the protein production entry is recorded as “failed”.
The value for “MSSECDGGSKAVMNGLAPGSNGQDKDMDPTKICTGKGAVTLRASSSYRETPSSSPASPQETRQHESKPGLEPEPSSADEWRLSSSADANGNAQPSSLAAKGYRSVHPNLPSDKSQDSSPLLNEVSSSLIGTDSQAFPSVSKPSSAYPSTTIVNPTIVLLQHNREQQKRLSSLSDPVSERRVGEQDSAPTQEKPTSPGKAIEKRAKDDSRRVVKSTQDLSDVSMDEVGIPLRNTERSKDWYKTMFKQIHKLNRDDDSDLYSPRYSFSEDTKSPLSVPRSKSEMSYIDGEKVVKRSATLPLPARSSSLKSSSERNDWEPPDKKVDTRKYRAEPKSIYEYQPGKSSVLTNEKMSRDISPEEIDLKNEPWYKFFSELEFGKPTNLDKDLSLCQTELEADLEKMETLNKAPSANVPQSSAISPTPEISSETPGYIYSSNFHAVKRESDGAPGDLTSLENERQIYKSVLEGGDIPLQGLSGLKRPSSSASTKVHSRTFNTSNALGPVCKHKKPLSAAKACISEILPSKFKPRLSAPSALLQEQKSILLPSEKAQSCENLCVSGSLNDSKRGLPLQVGGSIENLLMRSRRDYDSKSSSTMSLQEYSTSGRRPCPLSRKAGMQFTMLYRDMHQINRSGLFLGSISSSSSVRDLASHFEKSSLALSRGELGPSQEGSEHIPKHTVSSRITAFEQLIQRSRSMPSLDLSGRLSKSPTPVLSRGSLTSARSAESLLESTKLHPKEMDGMNSSGVYASPTCSNMAHHALSFRGLVPSEPLSTCSDDVDRCSNISTDSREGSGGSVHGDFPKHRLNKCKGTCPASYTRFTTIRKHEQQQTSRQPEWRLDARGDKSTLLRNIYLMSPLPFRLKKPLHHHPRQPSPGDSSGLLVGQKPDLPSQPHQDQPPSGGKPVVPTRLSSRHTMARLSRSSEPSQERPTALEDYPRAINNGNSVPYSDHSLDRNNNPQSELAPSRGDSESPRHFIPADYLESTEEFIRRRHDDKEMRPARAKFDFKAQTLKELPLQKGDIVYIYKQIDQNWYEGEHHGRVGIFPRTYIELLPPAEKAQPKKLTPVQVLEYGEAIAKFNFNGDTQVEMSFRKGERITLLRQVDENWYEGRIPGTSRQGIFPITYVDVIKRPLVKNPVDYMDLPFSSSPSRSATASPQQPQAQQRRVTPDRSQTSQDLFSYQALYSYIPQNDDELELRDGDIVDVMEKCDDGWFVGTSRRTKQFGTFPGNYVKPLYL” was “not failed”.
The entry for “MIVSVVIPVAKEGNTLYERIHLINKHFNSLSSSHKFSYEIILVSDIFHKPTLKAMIRLAKENVAKCLLLTQRIGKGGSIKNAIPFSRGDYIVILDADIPVRPIFINQAVVLAMNLGIDLIIANRVYRTHSLLRRVLSVAYNSLVNLLFKTGLRDHQAGLKILSRRAAKIILMKRTRTDGLAYDTEIVVWAKRHGLRYRAVNVVWREQREGSTIPPMRALLTMLADLIMLRLLTLAGKYVALQKLVIGRVIDLGNIHTVGQEFMTVIRASRPKNHLLNVLRKLYIAVALRR” is “failed”.
The entry for “MAHHTKETMELIKELVSIPSPSGNTAKIINFIENYVSEWNVETKRNNKGALILTVKGKNDAQHRLLTAHVDTLGAMVKEIKPDGRLSLSMIGGFRWNSVEGEYCEIETSSGKTYTGTILMHQTSVHVYKDAGEAKRDEKNIEVRIDERVFSADEVRELGIEVGDFVSFDPRVQITESGYIKSRHLDDKVSVAILLKLIKRLQDENVTLPYTTHFLISNNEEIGYGGNSNIPEETVEYLAVDMGALGDGQASDEYTVSICAKDSSGPYHYALRKHLVELAKTNHIEYKVDIYPYYGSDASAAIRAGFDVKHALIGAGIDSSHAFERTHESSIAHTEALVYAYVMSNLIEE” is “not failed”; for “AIAITGETEPACVEDASQLAEQRNGAPVMEAGCAAVPVEANATKRGYWRQRTLHSWFIGRKPQRTCIAVDIDEVLAFFVPELCAFHNKRYGTRLQATDFHSYRFAEVWGGTDTDAIRKVHEFFRTPAFQELQPIPGAKQVLQSRLARFRFVVVTSRQLVIEQETRAWLDKHFSGIFEAIYLGNQWALHPNGEHGTGVGSAAQEPQRLFANRRRKSQVCKACGAAVLIDDLPHNLLDCSENGVFGVLFDFQGQYGWSKSPAFESKDIAVVHSWEAVGELLDRL” it is “failed”.
Consider “MIMMESGKLDLDRTKEGVKKYWDYGSKFYDTAPGLGGNEESQIWKKLLSSSIGPDLKNILDVGSGTGIIAMYLAELGYGVTAVDFSEGMMDIARKKALEKGAKIRFMEGDIENLSFEDETFDCVTARYVLWTLPHPEKALKEWVRVVKPGGRIVIIDGKWVTRGLLPRISAMNYHIYRFIKYGKNPFTYDYRKEVSVGLPNPHGVEKKQIMEYVSKAGLTDIVVTDLKIIRDIQRKKLPWYLKYANDHPIFMVRGTVAKKG”, for which the protein production entry is reported as “failed”.
The entry for “MAVDWERRIDFDRLRTQRLTRALDALERSELGALLLFDMNNIRYTTATHIGNWARDKLFRMALLIRGQAPILWDIGSAARLHQMQAPWLPQESWRAGLSTWRGAIDDEVGVQTGNAKKVADLLREHGLANDPVGVDVVELPMLKALEAEGLTIVDGQGLMLDVRSIKTVDEIALLDHAAACVDAAYEELYKFLRVGVKENETVALVNKVLYELGSEEVEAVNAISGERCSPHPHVFSDRMIRPMDTAYFDIVHSYMGYRTCYYRTLNVAGATRAQRDAYKRAREYIDLAISEVKPGVLTSDIVKHFPAAQEFGFASEEEAFGLQYCHGVGLSVWEKPLMSRYHSFDHPVEIKEGMVFALETYWPTADGSSAARIEEEVEVTATGARVITRFPADELLVAGTRYWNGFDFPEIKAPIGRGVASGVAATNGAGAS” is “failed”; for “MEKAMPESFVVRREAHLAAPPAAVFALMTDPEKILRWMGTEAEVEPEPGGLYLVNVTGARFARGSFREVVPVHRLAYSFGWDGSEVVPPGSSLVEIDLIEQGGGTLLRLTHSGLPSAEQCAGHEEGWAHYLGRLTEVAAGRDPGLEHHHHHH” it is “failed”; for “MNEVKSLTTAEGPTKLLNLQLKDLGDSLIDVALWGKLAEDVYSNIKSQPSGPVFSSWKFDEDFAISRHSSKLKIYNKSLYPFSTTRDSSVSRSFNCFGETPQELLDLGGRNYVFKIMVKHEAKHNQSSTYKMISLTDVLNVIQSFFESASTLNDIEQEIITVSGNSVGTSIGTTTQAEINFVDVDNLDNNEDNAYYISTPKPITKRFLATSKHVQQSSTKP” it is “not failed”.
“MIGDMNELLLKSVEVLPPLPDTVSKLRKYVSEANSNIETMKVAEIISSDPLMTAKLLQLANSPYYGFTREITTINQVITLLGVGNIINIVMADSIRDNFKIDVSPYGLNTQNFLKTCNEEATFIANWLNDEDKKLSHLLVPCAMLLRLGIVIFSNFLIQNHKDKDFLAFLNKNENLALAENEFLGVDHISFLGFLLHRWNFDDVLIESICFVRTPHAAREKVKKSAYALAITDHLFAPHDGSSPFNAKAAVALLKEAKTQGINFDLNNLLSKLPNKAKENLNKED”: the protein production entry was “not failed”.
For the sequence “MKLIDLHVHSYHSDGVLAPAVLVAMAAERGLASLAIADHDAVDGIDEAVAEGVRLGVDVIPAVELSVELGRFSDLHILGYCIDHHDPAFRDKLAGFRSARDNRGKAILEKINRRLLHSRKAPLSYDEVLSMAGGAVGRPHIGRVLVDNGYARDMEDAFRRYLIPCNVPKRYMPAGEAIAEIRRIGGVSVLAHPPTITDDRRRLRQVVEQLAQLGLDGLEVFNNLCFKDDMLYLERLAEEFGLLMTGGSDFHGFEDDVELGRGRGGLAVAHSLAEKVKELAAQRKHSHA”, the protein production entry was “failed”.
For the sequence “MILNVAGPLGNPAPMEKFGKILAIGAYVGIAEVYPIAKAWQEIGNDVTTLHVTFEPMVILKDYFEKAVSRHIVEPVKIDQEKSFQENTKNVTKALTAKVKELLDNENWDLVFMVGPPGDQKAVFEVVKKYGIPMKVDLHPIMLEHHHHHH”, the protein production entry is recorded as “not failed”.
Consider “MTAWSLLHVGVFASVVMVVGWLWQRRSGNAGPVDVLWAGCLALAAPYCAWMADGALLPRALVAVLGGVWGARLALHLGVRVFGDPHEDGRYRALREHWNGSQGKFLGFFLAQAVVVVLFAVPFLAAASNPHAEWSAWTGIAIVVWLIAVGGEALADRQLSAHKANPANRGKTCRTGLWRYSRHPNYFFEFVHWFAYLALAVGAGPWPVALCALGPVVMFVFLYRFTGIPYTEQQALRSRGEDYAQYQRSTSAFFPLPPSS”, for which the protein production result is given as “failed”.
The value for “MSSIKIECVLPENCRCGESPVWEEVSNSLLFVDIPAKKVCRWDSFTKQVQRVTMDAPVSSVALRQSGGYVATIGTKFCALNWKEQSAVVLATVDNDKKNNRFNDGKVDPAGRYFAGTMAEETAPAVLERHQGALYSLFPDHHVKKYFDQVDISNGLDWSLDHKIFYYIDSLSYSVDAFDYDLQTGQISNRRSVYKLEKEEQIPDGMCIDAEGKLWVACYNGGRVIRLDPVTGKRLQTVKLPVDKTTSCCFGGKNYSEMYVTCARDGMDPEGLLRQPEAGGIFKITGLGVKGIAPYSYAG” was “failed”; that for “MEPISARSMISAAATEAVVASGDGAPRVERRKRLSPAALAVANQKVPPAFSPIVIAGSVRLADFLVIAAVGIALYFALVVRRDGFAWEYIAAILGTTATAVVAFQAADLYEVQLFRGTLKQMTRIISTWSIVFLLFIGASFFAKLGGEVSRLWLGSFFFAGLALLIIERLSVRALVRRWASQGRLDRRTVIVGADANGAKLIEALKAEHADASDIRILGVFDDRNDARSQSTCAGVPKLGKVDDIPEFARRTRVDLVLFALPISAETRILDMLKKLWVLPVDIRLSAHTNKLRFRPRAYSYVGKVPTLDVFEAPITDWDQVIKQVFDRVVGGFILLLAAPVMALVALAIKLDSPGPVLFRQKRFGFNNERIDVLKFRSMYHDQADPTASKVVTRNDPRVTRVGRFIRRTSLDELPQLFNVVFKGNLSLVGPRPHAVQGKLQSQLFDEAVDGYFARHRVKPGITGWAQINGWRGEIDNEEKIQKRVEFDLYYIENWSVLFDLYILLRTPWALLKGENAY” was “failed”.
The value for “MLMRTTRKISITDYGVYYYKTCRSIFDLLHESAEVASNVIHNPEGVLNISMPRSFGIFGFLPTLEKFYRIHPKIRVDVSISDSLVDFSENRFDAAVRLGVLSDSSLVARPLRPYKLVLCASPAYLARKGRPATPKDLIVHDCIATYFDEYRTAWNTLQNTWEFLCADGEFIKVSVPARMQVNDAQGVCIMVLSGQGIALLPEIIVSAHLTEGRLIELLPDYQIPSRPMSLVYRKNSLMPFKLKAFIGFLMDEFS” was “failed”.
